Target: histidine kinase UzcS (Caulobacter crescentus NA1000)
Assay: cell-based or functional assay

Sequence of histidine kinase UzcS (Caulobacter crescentus NA1000) (chain, as listed by the source limits assumed, form in doubt): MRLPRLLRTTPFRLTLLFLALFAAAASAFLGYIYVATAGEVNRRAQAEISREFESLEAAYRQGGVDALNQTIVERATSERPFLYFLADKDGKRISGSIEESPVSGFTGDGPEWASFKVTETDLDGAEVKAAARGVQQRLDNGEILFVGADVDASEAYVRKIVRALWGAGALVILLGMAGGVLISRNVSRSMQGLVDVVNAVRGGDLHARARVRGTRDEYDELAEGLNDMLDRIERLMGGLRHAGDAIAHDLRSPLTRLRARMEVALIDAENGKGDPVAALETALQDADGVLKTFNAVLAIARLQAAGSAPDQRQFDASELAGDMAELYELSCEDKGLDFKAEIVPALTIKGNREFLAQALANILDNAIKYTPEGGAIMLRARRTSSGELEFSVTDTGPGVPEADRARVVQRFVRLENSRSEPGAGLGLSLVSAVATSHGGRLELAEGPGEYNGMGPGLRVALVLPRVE

fold decrease in U detection limit of UzcRS (reporter fluorescence in C. crescentus, +UzcY versus -UzcY, FIG. 12): > 4 fold
Substance: UzcY (protein encoded by CCNA_03497)
